One test addresses human laminin (human). Kind of test: enzyme-linked binding assay (ELISA format), non-conjugated HRPO on immobilized matrix protein.
Another test has as its target T1, human collagen type I (human, UniProt P02452 162-1218; P08123 80-1119, limits assumed).
T1 construct: Bought (Gibco BRL), immobilized on plates; also called type I collagen; collagen type 1
The test is described as above.

For a further test, the target named is T2, human fibronectin (human, UniProt P02751 32-2477, limits assumed).
T2 construct: Bought, immobilized on plates
The description is as above.

The target in the next test is BSA (bovine) (UniProt P02769). The test is described as follows: enzyme-linked binding assay (ELISA format), non-conjugated HRPO on immobilized BSA. (In general: In an ELISA, binding on a coated surface is turned into a signal by an enzyme label.)
BSA (bovine), sequence (P02769 25-607 limits assumed): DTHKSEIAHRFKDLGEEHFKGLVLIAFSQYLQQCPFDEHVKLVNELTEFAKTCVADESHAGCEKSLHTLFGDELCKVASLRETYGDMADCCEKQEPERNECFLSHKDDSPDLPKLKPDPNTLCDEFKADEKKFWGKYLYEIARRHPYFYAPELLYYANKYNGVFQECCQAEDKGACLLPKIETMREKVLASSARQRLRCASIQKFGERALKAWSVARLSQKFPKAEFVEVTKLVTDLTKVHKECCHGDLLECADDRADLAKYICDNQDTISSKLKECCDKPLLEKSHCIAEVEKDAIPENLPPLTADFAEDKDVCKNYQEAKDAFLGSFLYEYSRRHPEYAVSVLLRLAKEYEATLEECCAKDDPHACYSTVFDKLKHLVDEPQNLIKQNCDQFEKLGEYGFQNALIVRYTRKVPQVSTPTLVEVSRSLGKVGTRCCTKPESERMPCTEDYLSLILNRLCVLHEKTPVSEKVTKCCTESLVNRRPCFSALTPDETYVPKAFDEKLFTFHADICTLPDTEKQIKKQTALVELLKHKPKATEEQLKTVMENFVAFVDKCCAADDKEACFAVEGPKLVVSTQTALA

T1 sequence (P02452 162-1218 limits assumed, chain 1 of 2): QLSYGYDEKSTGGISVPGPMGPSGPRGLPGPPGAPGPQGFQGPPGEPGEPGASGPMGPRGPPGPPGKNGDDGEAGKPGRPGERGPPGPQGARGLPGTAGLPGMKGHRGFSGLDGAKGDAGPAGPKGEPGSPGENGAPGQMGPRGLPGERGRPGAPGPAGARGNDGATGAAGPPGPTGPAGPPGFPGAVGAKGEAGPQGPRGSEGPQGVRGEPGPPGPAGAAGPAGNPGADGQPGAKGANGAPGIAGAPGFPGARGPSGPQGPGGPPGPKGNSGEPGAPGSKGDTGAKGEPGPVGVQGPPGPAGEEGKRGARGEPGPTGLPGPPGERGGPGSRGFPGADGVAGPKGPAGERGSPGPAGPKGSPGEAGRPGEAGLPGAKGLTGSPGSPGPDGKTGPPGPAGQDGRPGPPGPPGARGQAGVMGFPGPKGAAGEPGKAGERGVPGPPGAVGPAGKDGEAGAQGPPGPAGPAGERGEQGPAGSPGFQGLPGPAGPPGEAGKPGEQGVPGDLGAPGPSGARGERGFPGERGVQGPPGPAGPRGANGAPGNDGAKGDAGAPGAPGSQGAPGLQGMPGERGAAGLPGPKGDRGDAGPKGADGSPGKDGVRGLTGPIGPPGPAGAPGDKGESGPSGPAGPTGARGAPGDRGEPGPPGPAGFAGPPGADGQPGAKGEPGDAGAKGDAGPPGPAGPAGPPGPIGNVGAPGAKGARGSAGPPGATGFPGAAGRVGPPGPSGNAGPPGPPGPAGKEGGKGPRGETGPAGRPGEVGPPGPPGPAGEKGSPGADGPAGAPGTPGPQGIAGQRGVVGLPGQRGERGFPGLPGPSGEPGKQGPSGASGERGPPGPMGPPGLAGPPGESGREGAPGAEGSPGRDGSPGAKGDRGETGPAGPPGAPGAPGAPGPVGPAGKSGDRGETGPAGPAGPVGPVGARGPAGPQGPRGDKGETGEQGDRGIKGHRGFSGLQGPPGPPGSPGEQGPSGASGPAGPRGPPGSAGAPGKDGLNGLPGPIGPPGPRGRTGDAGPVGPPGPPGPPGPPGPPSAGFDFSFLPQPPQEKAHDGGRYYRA
T1 sequence (P08123 80-1119 limits assumed, chain 2 of 2): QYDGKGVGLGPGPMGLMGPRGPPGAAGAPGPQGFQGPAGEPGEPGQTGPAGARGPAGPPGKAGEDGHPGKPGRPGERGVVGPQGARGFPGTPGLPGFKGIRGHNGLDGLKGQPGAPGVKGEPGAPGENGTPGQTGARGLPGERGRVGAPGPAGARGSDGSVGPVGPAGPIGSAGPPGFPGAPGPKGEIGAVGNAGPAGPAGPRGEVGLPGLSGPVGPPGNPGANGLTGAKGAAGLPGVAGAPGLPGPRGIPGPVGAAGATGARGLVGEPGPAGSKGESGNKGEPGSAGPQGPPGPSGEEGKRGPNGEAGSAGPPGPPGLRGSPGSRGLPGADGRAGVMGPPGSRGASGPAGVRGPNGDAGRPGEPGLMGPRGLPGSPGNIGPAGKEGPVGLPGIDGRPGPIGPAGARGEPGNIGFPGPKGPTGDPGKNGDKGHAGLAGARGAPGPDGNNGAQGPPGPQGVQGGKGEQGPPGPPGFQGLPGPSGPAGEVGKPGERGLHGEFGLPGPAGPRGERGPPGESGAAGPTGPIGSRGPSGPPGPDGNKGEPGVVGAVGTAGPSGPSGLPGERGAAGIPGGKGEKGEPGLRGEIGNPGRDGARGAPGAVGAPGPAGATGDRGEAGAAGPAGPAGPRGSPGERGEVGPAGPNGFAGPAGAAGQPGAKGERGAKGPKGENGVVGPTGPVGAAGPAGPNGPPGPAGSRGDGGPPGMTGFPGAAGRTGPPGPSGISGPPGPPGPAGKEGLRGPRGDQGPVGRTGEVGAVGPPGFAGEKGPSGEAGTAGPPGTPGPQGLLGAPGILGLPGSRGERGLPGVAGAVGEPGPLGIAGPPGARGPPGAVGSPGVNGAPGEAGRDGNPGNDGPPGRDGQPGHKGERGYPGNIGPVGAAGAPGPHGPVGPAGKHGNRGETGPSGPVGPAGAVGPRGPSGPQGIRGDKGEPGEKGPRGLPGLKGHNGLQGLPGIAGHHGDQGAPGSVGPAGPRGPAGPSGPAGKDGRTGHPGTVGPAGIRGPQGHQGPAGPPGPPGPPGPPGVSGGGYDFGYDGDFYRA
T2 sequence (P02751 32-2477 limits assumed): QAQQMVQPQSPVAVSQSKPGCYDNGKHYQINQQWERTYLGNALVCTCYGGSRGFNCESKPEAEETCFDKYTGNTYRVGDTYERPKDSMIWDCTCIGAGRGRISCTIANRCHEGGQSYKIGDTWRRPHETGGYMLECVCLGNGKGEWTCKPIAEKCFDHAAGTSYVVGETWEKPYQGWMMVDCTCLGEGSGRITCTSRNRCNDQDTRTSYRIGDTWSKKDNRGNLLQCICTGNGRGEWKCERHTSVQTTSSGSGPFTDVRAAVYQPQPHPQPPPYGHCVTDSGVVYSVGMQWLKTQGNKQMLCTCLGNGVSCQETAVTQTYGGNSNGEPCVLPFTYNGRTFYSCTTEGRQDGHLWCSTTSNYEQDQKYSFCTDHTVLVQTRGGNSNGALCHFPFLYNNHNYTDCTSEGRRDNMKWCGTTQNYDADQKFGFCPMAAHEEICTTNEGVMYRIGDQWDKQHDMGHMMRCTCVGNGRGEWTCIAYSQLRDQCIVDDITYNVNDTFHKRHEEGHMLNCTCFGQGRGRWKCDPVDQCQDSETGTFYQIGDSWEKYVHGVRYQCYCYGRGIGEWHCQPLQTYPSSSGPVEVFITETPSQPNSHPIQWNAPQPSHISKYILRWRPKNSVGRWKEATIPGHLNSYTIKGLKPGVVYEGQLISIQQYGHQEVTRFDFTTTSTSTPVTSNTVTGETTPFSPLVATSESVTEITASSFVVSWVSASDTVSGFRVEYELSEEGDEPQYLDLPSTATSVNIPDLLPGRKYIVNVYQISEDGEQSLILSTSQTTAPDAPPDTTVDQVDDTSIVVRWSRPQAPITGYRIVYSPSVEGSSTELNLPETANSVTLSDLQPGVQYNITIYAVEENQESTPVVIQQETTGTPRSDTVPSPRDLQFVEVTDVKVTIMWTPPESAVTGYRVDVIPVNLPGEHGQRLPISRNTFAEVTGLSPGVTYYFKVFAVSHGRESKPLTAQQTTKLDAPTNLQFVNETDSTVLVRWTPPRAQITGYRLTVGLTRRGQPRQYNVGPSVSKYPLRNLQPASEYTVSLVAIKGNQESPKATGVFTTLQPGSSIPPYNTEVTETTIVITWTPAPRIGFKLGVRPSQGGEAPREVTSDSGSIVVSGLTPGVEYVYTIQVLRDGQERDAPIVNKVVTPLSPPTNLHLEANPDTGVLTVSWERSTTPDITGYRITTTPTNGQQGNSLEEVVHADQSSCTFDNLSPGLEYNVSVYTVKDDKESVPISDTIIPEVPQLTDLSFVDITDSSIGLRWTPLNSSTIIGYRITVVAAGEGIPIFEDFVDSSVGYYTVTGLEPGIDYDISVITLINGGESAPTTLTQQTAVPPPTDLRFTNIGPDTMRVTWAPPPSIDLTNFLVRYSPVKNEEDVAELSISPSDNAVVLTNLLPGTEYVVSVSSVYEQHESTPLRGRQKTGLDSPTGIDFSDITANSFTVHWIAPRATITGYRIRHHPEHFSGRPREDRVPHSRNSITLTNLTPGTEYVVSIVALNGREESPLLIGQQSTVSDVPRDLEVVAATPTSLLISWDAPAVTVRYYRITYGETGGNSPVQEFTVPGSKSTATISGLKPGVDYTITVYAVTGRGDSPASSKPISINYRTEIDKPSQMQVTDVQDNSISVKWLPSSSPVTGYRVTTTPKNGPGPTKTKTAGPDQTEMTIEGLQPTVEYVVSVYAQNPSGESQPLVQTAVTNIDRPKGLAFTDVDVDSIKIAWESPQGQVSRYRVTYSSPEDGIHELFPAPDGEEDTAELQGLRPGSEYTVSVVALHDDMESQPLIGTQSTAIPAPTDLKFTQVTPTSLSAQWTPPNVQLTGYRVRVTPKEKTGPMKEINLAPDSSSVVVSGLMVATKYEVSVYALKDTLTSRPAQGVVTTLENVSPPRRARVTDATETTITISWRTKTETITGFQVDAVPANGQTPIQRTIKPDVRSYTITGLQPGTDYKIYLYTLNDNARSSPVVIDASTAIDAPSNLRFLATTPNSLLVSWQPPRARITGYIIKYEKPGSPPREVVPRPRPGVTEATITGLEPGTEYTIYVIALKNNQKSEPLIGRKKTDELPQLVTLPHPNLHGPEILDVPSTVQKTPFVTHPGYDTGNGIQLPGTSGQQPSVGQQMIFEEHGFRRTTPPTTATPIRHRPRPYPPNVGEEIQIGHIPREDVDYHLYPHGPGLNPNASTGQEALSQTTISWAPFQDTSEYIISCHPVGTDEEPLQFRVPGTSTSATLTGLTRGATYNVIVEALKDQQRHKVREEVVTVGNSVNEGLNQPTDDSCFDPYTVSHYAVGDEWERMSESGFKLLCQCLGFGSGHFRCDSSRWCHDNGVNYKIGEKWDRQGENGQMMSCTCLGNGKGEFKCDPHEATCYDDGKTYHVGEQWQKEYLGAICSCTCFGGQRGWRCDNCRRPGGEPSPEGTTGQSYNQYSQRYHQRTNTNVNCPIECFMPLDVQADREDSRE
Description for human collagen type I: (§1) After purification and labeling, it was subjected to an enzyme-linked binding assay with the Immobilized human matrix proteins, collagen type 1, fibronectin and laminin.
(§2) Peroxidase-labeled Cpa-maltose binding protein fusion and recombinant purified maltose-binding protein (for control of specific binding of the bacteria) were added to the wells for 2 h at room temperature. Non-conjugated peroxidase at a 1:300 dilution in PBS-T was used as a negative control. […] All assays were repeated on at least three independent occasions.
Description for human fibronectin: as §1, §2
Description for human laminin: as §1, §2

B1: non-conjugated horseradish peroxidase (enzyme, UniProt P00433 31-338, looked up)
chain: QLTPTFYDNSCPNVSNIVRDTIVNELRSDPRIAASILRLHFHDCFVNGCDASILLDNTTSFRTEKDAFGNANSARGFPVIDRMKAAVESACPRTVSCADLLTIAAQQSVTLAGGPSWRVPLGRRDSLQAFLDLANANLPAPFFTLPQLKDSFRNVGLNRSSDLVALSGGHTFGKNQCRFIMDRLYNFSNTGLPDPTLNTTYLQTLRGLCPLNGNLSALVDFDLRTPTIFDNKYYVNLEEQKGLIQSDQELFSSPNATDTIPLVRSFANSTQTFFNAFVEAMDRMGNITPLTGTQGQIRLNCRVVNSNS
notes: Negative control; also called HRPO; HRPO (negative control)
B1: the OD492 with human laminin was 0.038 OD492; in the test with human collagen type I it was 0.049 OD492; with human fibronectin it was 0.038 OD492; with BSA (bovine), 0.028 OD492.
